Molecular target: the molecule itself
Assay: flow cytometry FRET between anti-CD277-PE (donor) and anti-CD277-DyLight 680 (acceptor) on HEK 293 cells, medium or pamidronate (ABP)

B1: CD277 (butyrophilin BTN3A1) expressed on cells (Daudi, HEK 293, EBV-LCL 48) (receptor)
chain: not shown
notes: whole, on cells; The anti-CD277 antibodies may also see other BTN3 isoforms; also called CD277J
- binding result: binds
